The text below walks through data of US20240102094A1 (Amgen, published 2024).

Where a chain is given by its changes, count along the chain named.

For experiment [1], the target named is T1, human TREM2, common variant, expressed on cells (human, UniProt Q9NZC2 19-230).
T1 sequence: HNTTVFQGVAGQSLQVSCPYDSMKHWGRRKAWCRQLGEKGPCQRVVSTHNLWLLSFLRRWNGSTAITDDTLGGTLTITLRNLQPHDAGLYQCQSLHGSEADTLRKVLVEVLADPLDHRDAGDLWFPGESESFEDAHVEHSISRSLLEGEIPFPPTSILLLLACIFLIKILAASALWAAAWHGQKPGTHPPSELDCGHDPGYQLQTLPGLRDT
The experiment is described as follows: cell-based or functional assay.

Experiment [2] deals with T2, mTREM2 expressed with mDAP12 on HEK293 cells (mouse, UniProt Q99NH8 19-227).
T2 construct: whole, on cells
T2 sequence (looked up): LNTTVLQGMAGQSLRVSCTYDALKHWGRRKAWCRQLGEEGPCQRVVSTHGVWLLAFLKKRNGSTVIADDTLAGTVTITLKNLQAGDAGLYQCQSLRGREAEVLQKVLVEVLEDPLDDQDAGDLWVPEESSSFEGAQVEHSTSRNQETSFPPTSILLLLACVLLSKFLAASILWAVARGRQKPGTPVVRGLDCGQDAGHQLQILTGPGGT
Description: flow cytometry on HEK293 cells expressing mTREM2 and mDAP12, Geomean Fold (S/B) against antibody concentration.

In experiment [3] the target is T3, human TREM2 R47H variant, expressed on cells (human, UniProt Q9NZC2 19-230).
T3 construct: On BMMs from TREM2R47H transgenic mice or on 2B4 NFAT:GFP reporter cells with DAP12; also called hTREM2R47H
T3 chain: T1 sequence with R29H
Description: flow cytometry on bone marrow-derived macrophages from TREM2R47H mice, detection with anti-hIgG Fc-PE. An excerpt:
An anti-hTREM1 antibody and an isotype-matched hIgG2 control antibody were used as controls. […] Dead cells were excluded by DAPI staining.

The target of experiment [4] is T4, recombinant hTREM2:GSS:Flag:6xHis (human, UniProt Q9NZC2 19-174, minimally biotinylated (0.3-0.4 biotin/mol) when immobilised on streptavidin sensors).
T4 construct: also called hTREM2-His; purified human TREM2; not shown: Flag tag
Description: Octet BLI; biotinylated hTREM2:GSS:Flag:6xHis on streptavidin sensors, Fab dilution series 30, 10, 3.3 nM, global 1:1 fit; Fab, not IgG; biotinylated hTREM2 on streptavidin sensors.

B1: hT2AB (fully human anti-human TREM2 agonistic monoclonal antibody, effectorless hIgG1) (antibody, V domains shown)
VH: EVQLVQSGAEVKKPGESLKISCKGSGYSFTSYWIGWVRQMPGKGLEWMGIIYPGDADARYSPSFQGQVTISADKSISTAYLQWSSLKASDTAMYFCARRRQGIFGDALDFWGQGTLVTVSS
VL: EIVMTQSPATLSVSPGERATLSCRASQSVSSNLAWFQQKPGQAPRLLIYGASTRATGIPARFSGSGSGTEFTLTISSLQPEDFAVYYCLQDNNFPPTFGQGTKVDIKR
notes: also called hT2AB IgG1; anti-human TREM2 mAb hT2AB
Regarding B1, in experiment [1], the “EC50 of pSyk induction in HEK293 cells expressing human TREM2 and DAP12 (clone G13)” value was found to be 222 pM; the “EC50 of pSyk induction in human monocyte-derived macrophages (hMacs)” value worked out at 166 pM. Further, in experiment [2], the binding result is on record as “no binding (tested: 5 ug/mL)”. In addition, in experiment [3], the binding result is listed as “binds”.

B2: hT2AB Fab (monomeric antigen-binding fragment of hT2AB) (Fab, V domains shown)
VH: B1 VH
VL: EIVMTQSPATLSVSPGERATLSCRASQSVSSNLAWFQQKPGQAPRLLIYGASTRATGIPARFSGSGSGTEFTLTISSLQPEDFAVYYCLQDNNFPPTFGQGTKVDIK
notes: also called hT2AB Fab protein
For the molecule B2, in experiment [4], the dissociation constant (Kd) turned out to be 50 nM.
